Biological target: Cat1-His6 (CRISPR-associated TIR protein 1, homolog MCI0612855.1)
Assay: SEC-MALS; Cat1-His6 with NAD+ (1:10 molar ratio), no cA4; Superose 6 10/300 increase; 25 mM MES pH 6, 200 mM NaCl, 2 mM β-mercaptoethanol, 5 % glycerol

## Cat1-His6 (CRISPR-associated TIR protein 1, homolog MCI0612855.1) (enzyme)
  stoichiometry N: 2

Reference: publication PMC12162218
